Among the data in a protein production outcome set (Wang et al. 2014) are protein production values, retold here.

A short description of the data set: label from the status in PepcDB records.
In the case of “MQKEKAPIGLYFLLIAVMASWGFNVTMTKVLVSYFPTVTMTSFRIFTAAITVIIILFITKKLRLPTKREFGLIFLASIFNIVIHHFFLSNGLKLTTGTNAGLILGSAPIVVAIFSVVFLRERIGAWRALGFLAGIFGVSLVVLSNGTGISGISLGDIDIFIAMASQAFSFIIIKKLAGSMDTGLMTGYMLFLGSVMLFALSRFMEPGGVSELVAVHSWKLWLLFVVSAVVATAFGNFVYNYAVGKIGPSRSAIFMNFNPLFSLIGALLFLGEAIKIPQLVGFVFIIIGVLLGSGALMDLIYERKKTKVRDPEKLLEKEV”, the protein production result is listed as “failed”. Consider “MQKFIRDFTLPAAFAGFVTFLIGISVSSVLVIQAAQILGANTPQITSWFWALGIGIGLSGLILSWKFKYPVATSWSTAGLALIIATGSGYSLHEAIGAFLLCGLLTALLGFFGVFQKALAYIPQSLTSAMLAGVLLKFGIAIFGNMQDHWQFIISLLAVYIVSKRLWPRYCIVITVIAGVMICPFFMEFHLPTLHWELAKPEWITPHFTGSAILGLALPLFVINMASQYLPGIAMIKSYGYNPNVNQLIGWTGATQTLLAPFGCYTVNIAAISAAVSLDDQVHPDPAKRYIAGISCGFFYILMGLFAATLTSLLMSFPSLFIVALAGIALFGTISHNIAIAFQEPTDREAALLTFLCSASGIQFFGIGSAFWGLIVGVIVSMVLKTKFKKS”, for which the protein production result is “failed”. With “MQKGKDLTLRLMIVDDSVESAETIVTALRNGGIAVRPSRPQSQEELASMLSGQIDLAILGQAQQIPMSALQTQIAGSGKDIPILLLAERIEENALVEAASHGVRAIALRHRPAHLLALVRSEWDDLQARRGLRRIEAQMRETERRCDALIASSRDPIAYVHEGMHIRANDAYLEMFGFESFDDVEGISLLDMIAAQYVDDFKQLLKAMSKGEPPPAQYKLDARRVEGDTFPATMEFATATYEGEPCIQVVFRRREEFDPELAREVEDLRQRDQVTGLLNRPTFMVALEQAVAQAGRSEGQSGFLLIEPDHYARILPEFGLDSADALIAALAAHVASVLDDSVLAARFGEHSFALLLNGNYARTHALAETVRNAFAQHVFSVGTRSATVTVSIGGVQIGEKIASIGQVLNRGTEAVRTTAELGGNAVSIYDPAAADRAEEERIERWVEQLREALVGDGFLLHYQPVLNLQGEPLELYQAFLRLERNGEMMSPNAFMAIAEEHDLVTEIDRWVVARAIRQLGERQRAGHKTHLLVRIGPNSFSDPQMIDTIREQLAVYGVPGERLWLQTPESKVFTHLRNAQQFLAAVSAMDCKVGLEQFGSGLDSFQLLAHFHPAFLKLDRGITGDIASARDSQEKIREITSRAQPAGILTMAEFVADAQSMSSFFSAGVDYVQGDFVAPTGPLMNYEFG”, the protein production result is given as “failed”. Regarding “MQKGNIRIAIDKGGTFTDCVGNIGTGKQEHDTVIKLLSVDPKNYPDAPLEGIRRLLEVLEHKTIPRGIPLDISNVRSLRMGTTLATNCALERNGERCAFITTKGFKDSLLIGDQTRPDIFNLNIKKVVPLYDTVVEIDERVTLEDFSEDPYFTKSSPNEQEGILEGNSGEMVRVIKKPDESSVRSILKVLYASGIKSIAIAFLHSYTFPDHERIVGNIAREIGFSHVSLSSEVSPMIKFLPRAHSSVADAYLTPVIKKYLNSISAGLSHAEDTHIQFMQSDGGLVDGGKFSGLKSILSGPAGGVIGYSSTCYDKNNNIPLIGFDMGGTSTDVSRYGDGRLEHVFETVTAGIIIQSPQLDIHTVAAGGSSILSWKNGLFRVGPDSAAADPGPAAYRKGGPLTITDANLFLGRLVPEFFPKIFGPNEDESLDLETTTLKFRELTDVINKDLNSNLTMEEVAYGFIKVANECMARPVRAITEAKGHVVSQHRLVSFGGAGGQHAIAVADSLGIDTVLIHRYSSILSAYGIFLADVIEENQEPCSFILGEPETILKVKKRFLELSKNSIKNLLSQSFSREDIVLERYLNLRYEGTETSLMILQKYDDQWNFREWFSEAHKKEFGFSFDDKRIIIDDIRIRAIGKSGVRKEKTVDEQLIEISHFKKADVSKDASFTQKAYFDNKWVDTAVFKIDDLPAGTIIEGPAILADGTQTNIILPNSQATILNSHIFIKINQKAAKTLSKSGYELDIDPILLSIFSHRFMDIALQMGTQLRKTSVSTNVKERLDFSCALFDSKGNLVANAPHVPVHLGSMSTCISAQAKLWEGKLKPGDVLITNHPDIGGTHLPDITVITPSFSSTGELIFYVASRAHHADIGGILPGSVPPNSKELYEEGTAIYSELVVKEGIFQEELIYKLFVEDPGKYPGCSGSRRFSDNISDLKAQVAANTKGIQLIGSLTKEYDLATILKYMAAIQTNASESIKKMLAKMVEHFGTTKFSGEDRLDDGSLIKLQVIIRPEKEEYIFNFDGTSPQVYGNLNAPEAITNSAILYCLRCLVGEDIPLNQGCLKPLTIKIPAGSLLSPRSGAAVVGGNVLTSQRVTDVILKTFNVMADSQGDCNNFTFGTGGNSGNKTDKQIKGFGYYETICGGSGAGADSWRGSGWNGSDAVHTNMTNTRMTDTEVFERRYPVLLKEFSIRRGSGGKGKYTGGNGVVRDVQFRKAVTASILSERRVIGPHGIKGGQDGSRGENLWVRHSTGALINVGGKNTIYAQPGDRFIIKTPGGGGFGQYKD”, the protein production entry is “failed”. With “MQKIIDDSLELAKKLQDSISNHLSDQEKAFHSKMQKLLNNPENKVMLIELMDRSFRCLDNKARFEMIEHVLDKYKSREIFSPFEKVLLMGFLSFGKMLPDMSVPFFVNKIRSDTKAMVLDQEESQLKERILKRKNEKIILNVNFIGEEVLGEEEANARFEKYSQALKSNYIQYISIKITTIFSQINILDFEYSKKEIVKRLDALYALALEEEKKQGMPKFINLDMEEFRDLELTVESFMESIAKFDLNAGIVLQAYIPDSYEYLKKLHAFSKERVLKGLKPIKIRFVKGANMESEETIASVKDWALPTFSNKQDTDSNYNKMLDFVLEGDNYKYIHIGAASHNIFEIAYVYTRIHAINDPVVLEHFSFEMLEGMSLQASQELKEMHKLILYAPVCDEAHFNNAIAYLVRRLDENTSSDNFMKAFFNLKVGTSEWKDQEQRFLNSLKGIATLDNATHRTQDRNAKQSGHTTYPNHSFKNESDTDFILKANREWAKKVREKMRNAPILELYPEMDGRFEDPNLTPLEVFDRIHHKKIASVHLADKEAILKALEVAKSDKSRFSQKSFTEIHALMSQTAQLFRERRGDLIGISALEVGKTFAETDAEVSEAIDFLEFYPYSLRVLQEQNTKTQFTPKGVGVVIAPWNFPVGISVGTIAAPLATGNRVIYKPSSLSSVTGYKLCECFWDAGVPRDALIYLPSKGSDISEHLLRDESIQFAILTGGEDTAYKMLKANPTLALSAETGGKNATIVSKMADRDQAIKNVIHSAFSNSGQKCSATSLLVLEKEVYEDENFKKTLIDATLSLSVGDPFDFKNKIGALADKPNEKVIKAIDELKSYENYEIPVSFVNDNPYLMKPSIKYGTKKGDFTHQTELFTPILSVMEAKDLDEAIEIANSTGYGLTSALESLDEREWEYYLERIEAGNIYINKPTTGAIVLRQPFGGVKKSAVGFGRKVGIFNYITQFVNICQEEEDENALKNPLSEALENLTQKGYDEHTHELKRAIFMAKSYAYHYKHEFSQTKDYVKIRGEDNLFSYTKVKSVGYRITEKDTLSDMLGVALACLISQIPLTLSIENERTNKDLTFFLECLKALQASAPIVYESLQKFSEKLNTFNRVRYLKSDLDLLHEQASALGMVLATAKPCLNGRFELLYYHLERSVSISYHRYGNLGSRVLRQPTCHKSCCAEK”, the protein production entry was “failed”. On to “MQKNFSVVKKYVNLILDIVLGILGVFLLVFMASYLVDLATYLMKPMTPDNFSVIMQEIISFFMLFEFIMMILRYIQEGHHIPIRYLILICLTAILRQLMVAHGDGLQTLLLSLSILLLVVVLFILGLNGSKFYTLGKAKVEEDHEQDFHH”, for which the protein production result was “failed”. The entry for “MQKNLDSLLENLRAEIDALDNELSDLLDKRLEIALKIALIKQESPIYCPKREQEILKRLSQRDFKHLNGEILTGFYTEVFKISRKFQENALKELKK” is “failed”. As for “MQKPAVTVMVKAARLAGNVLLRGINKLDALNVVQKGRMDYASEVDADAEKVIIKELKRGYPEYAVFGEEGGVQGGKSGRYTWVIDPLDGTSNYLRGFPHYCVSIALVENGEPTDAVIFDPLRNELFTASRGAGAVLNDRRIRIAERKDLEGAMVHTGFPPRERARASAQLKCVDALLVQAEDVRRTGSAALDLAYVACGRADAYFEAGVKAWDIAAGVLLVREAGGRVCDYKGATPPRMDNMGPETQQIVAGNIKISDALQKVIVNTGYAREFDAKF”, the protein production entry is “failed”.
